Drawing on patent US20220411536A1, this text covers EC50 and rel. EC50 (EC50 reference/EC50 sample) for one substance.

The target in test [1] is unidentified antigen on CHO PD-L1 cells bound by pertuzumab (the filing speculates hamster HER2). Put plainly: flow cytometry, CHO PD-L1 cells (residual binding). (In general: In flow cytometry, cells or beads pass a laser one at a time.)
For test [2] the target is unchanged. Put plainly: flow cytometry, CHO PD-L1 cells; reference pertuzumab.

The term EC50 denotes the concentration needed to bring the measured effect to its halfway point. Read a high EC50 as lower potency in that assay. pertuzumab (antibody) gave an EC50 in test [1] of 1.29 nM. Further, the rel. EC50 (EC50 reference/EC50 sample) in test [2] is 1.
